Results on 12 molecules are retold here after patent US20230279152A1 (published 2023).

Residue numbers refer to the chain shown, from its start. Bounds are passed on as bounds.

The target of assay [1] is human Claudin 18.2 protein (human). The experiment in a line: cell-based or functional assay.
For assay [2], the target named is T1, human Claudin 18.2 protein (human).
T1 construct: Expressed on transfected cells (CHO-hCLDN18.2, HEK293-hCLDN18.2, 3T3-hCLDN18.2) from pCMV3-hCLDN18.2; also called human CLDN18.2; hCLDN18.2
T1 sequence (chain, as listed by the source limits assumed): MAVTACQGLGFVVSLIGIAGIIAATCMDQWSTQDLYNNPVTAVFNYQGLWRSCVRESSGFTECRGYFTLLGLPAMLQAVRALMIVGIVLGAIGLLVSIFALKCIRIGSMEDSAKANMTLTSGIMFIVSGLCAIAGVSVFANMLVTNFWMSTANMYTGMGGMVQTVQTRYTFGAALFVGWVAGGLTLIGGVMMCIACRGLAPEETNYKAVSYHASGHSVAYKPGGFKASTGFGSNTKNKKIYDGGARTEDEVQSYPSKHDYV
The experiment in a line: FACS cell surface binding analysis.

In assay [3] the target is T1, human Claudin 18.2 protein. The experiment in a line: FACS on cells expressing CLDN18.2 versus cells expressing CLDN18.1 (reference: binding to CLDN18.1).
From the text: FACS cell binding assays. […] Cells were fixed with 1% paraformaldehyde (PFA) prior to analysis on FACSCalibur cytometer (BD biosciences, Franklin Lakes, N.J., U.S.). Controls were cells with secondary antibody only, for which the mean fluorescent intensity (MFI) was set to 5.

B1: 47D10-huIgG1-V6×OKT3 (anti-CLDN18.2×CD3) bispecific antibody (bispecific antibody)
heavy: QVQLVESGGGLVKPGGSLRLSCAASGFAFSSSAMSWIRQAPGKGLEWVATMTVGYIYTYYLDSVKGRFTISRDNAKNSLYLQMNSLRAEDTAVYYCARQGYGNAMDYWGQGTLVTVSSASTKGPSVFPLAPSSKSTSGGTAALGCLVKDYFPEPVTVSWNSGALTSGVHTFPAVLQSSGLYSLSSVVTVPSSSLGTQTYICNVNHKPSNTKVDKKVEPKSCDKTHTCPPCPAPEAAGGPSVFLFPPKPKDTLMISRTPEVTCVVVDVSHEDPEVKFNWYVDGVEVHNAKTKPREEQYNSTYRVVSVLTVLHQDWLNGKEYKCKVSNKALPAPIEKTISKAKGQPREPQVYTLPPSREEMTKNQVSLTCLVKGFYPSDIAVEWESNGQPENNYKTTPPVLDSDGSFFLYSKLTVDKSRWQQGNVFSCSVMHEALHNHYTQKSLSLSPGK
light: DIVMTQSPLSLPVTPGEPASISCRSSQSLLNSGNQKNYLTWYLQKPGQSPQLLIYWASTRESGVPDRFSGSGSGTDFTLKISRVEAEDVGVYYCQNNYIYPLTFGQGTKLEIKRTVAAPSVFIFPPSDEQLKSGTASVVCLLNNFYPREAKVQWKVDNALQSGNSQESVTEQDSKDSTYSLSSTLTLSKADYEKHKVYACEVTHQGLSSPVTKSFNRGECTSGGGGSGGGGSGGGGSQVQLVQSGGGVVQPGRSLRLSCKASGYTFTRYTMHWVRQAPGKGLEWIGYINPSRGYTNYNQKFKDRFTISRDNSKNTAFLQMDSLRPEDTGVYFCARYYDDHYSLDYWGQGTPVTVSSGGGGSGGGGSGGGGSGGGGSGGGGSGGGGSDIQMTQSPSSLSASVGDRVTITCSASSSVSYMNWYQQTPGKAPKRWIYDTSKLASGVPSRFSGSGSGTDYTFTISSLQPEDIATYYCQQWSSNPFTFGQGTKLQIT
Turning to B1, the “TDCC activity (T cell dependent cellular cytotoxicity; CellTiter-Glo cell viability, PBMCs as effectors, 48 hours)” value (“TDCC activity” for short) in assay [1] was 1 pM.

B2: 32G4-huIgG1-V9 (antibody, V domains shown)
VH: EVQLVQSGSELKKPGASVKVSCKASGYSSTGYNINWVRQAPGQGLEWIGNINPYYGGITYNQGFTGRFVLSVDKSSSTAYLQISSLKAEDTAVYYCARDYYGNSFAYWGQGTLVTVSS
VL: DIVMTQSPDSLAVSLGERATINCKSSQSLLNSGNQKNYLTWYQQKPGQPPKLLIFWASTRESGVPDRFSGSGSGTDFTLTISSLQAEDVAVYYCQNNYYFPYTFGQGTKLEIKR
notes: Humanized full IgG1 antibody; also called humanized 32G4 variant V9; 32G4-V9
In assay [2], B2 had an EC50 of 0.129 nM.

B3: 47D10-huIgG1-V7×OKT3 (anti-CLDN18.2×CD3) bispecific antibody (bispecific antibody)
heavy: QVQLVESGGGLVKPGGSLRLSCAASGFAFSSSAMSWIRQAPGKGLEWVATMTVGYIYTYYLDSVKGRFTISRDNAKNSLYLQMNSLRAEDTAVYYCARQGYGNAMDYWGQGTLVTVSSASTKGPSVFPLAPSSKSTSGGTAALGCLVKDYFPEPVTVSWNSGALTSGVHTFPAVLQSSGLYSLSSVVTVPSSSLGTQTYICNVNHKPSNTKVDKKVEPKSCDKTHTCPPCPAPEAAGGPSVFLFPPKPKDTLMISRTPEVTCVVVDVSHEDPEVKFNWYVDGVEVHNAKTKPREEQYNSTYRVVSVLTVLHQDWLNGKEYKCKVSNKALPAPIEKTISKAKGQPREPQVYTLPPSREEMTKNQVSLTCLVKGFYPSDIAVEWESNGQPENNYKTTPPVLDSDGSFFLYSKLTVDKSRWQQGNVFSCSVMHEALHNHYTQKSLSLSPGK
light: DIVMTQSPGTLSLSPGERATLSCRSSQSLLNSGNQKNYLTWYQQKPGQAPRLLIYWASTRESGIPDRFSGSGSGTDFTLTISRLEPEDFAVYYCQNNYIYPLTFGQGTKLEIKRTVAAPSVFIFPPSDEQLKSGTASVVCLLNNFYPREAKVQWKVDNALQSGNSQESVTEQDSKDSTYSLSSTLTLSKADYEKHKVYACEVTHQGLSSPVTKSFNRGECTSGGGGSGGGGSGGGGSQVQLVQSGGGVVQPGRSLRLSCKASGYTFTRYTMHWVRQAPGKGLEWIGYINPSRGYTNYNQKFKDRFTISRDNSKNTAFLQMDSLRPEDTGVYFCARYYDDHYSLDYWGQGTPVTVSSGGGGSGGGGSGGGGSGGGGSGGGGSGGGGSDIQMTQSPSSLSASVGDRVTITCSASSSVSYMNWYQQTPGKAPKRWIYDTSKLASGVPSRFSGSGSGTDYTFTISSLQPEDIATYYCQQWSSNPFTFGQGTKLQIT
As to B3, the “TDCC activity” value in assay [1] is 1 pM.

B4: 32G4-huIgG1-V8×OKT3 (anti-CLDN18.2×CD3) bispecific antibody (bispecific antibody)
heavy: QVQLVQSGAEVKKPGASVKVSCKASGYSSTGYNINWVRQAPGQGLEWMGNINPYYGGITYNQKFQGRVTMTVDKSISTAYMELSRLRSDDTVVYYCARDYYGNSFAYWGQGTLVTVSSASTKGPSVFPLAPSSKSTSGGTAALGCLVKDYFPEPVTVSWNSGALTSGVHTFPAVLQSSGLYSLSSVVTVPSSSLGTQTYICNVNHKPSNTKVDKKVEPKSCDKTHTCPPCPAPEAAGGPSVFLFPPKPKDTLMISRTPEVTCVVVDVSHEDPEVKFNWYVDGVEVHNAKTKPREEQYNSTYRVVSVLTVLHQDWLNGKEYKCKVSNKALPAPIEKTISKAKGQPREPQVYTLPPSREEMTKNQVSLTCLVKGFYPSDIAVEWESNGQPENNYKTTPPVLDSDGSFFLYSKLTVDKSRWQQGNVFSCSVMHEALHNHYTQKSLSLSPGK
light: DIQMTQSPSSLSASVGDRVTITCRSSQSLLNSGNQKNYLTWYQQKPGKAPKLLIFWASTLESGVPSRFSGSGSGTDFTLTISSLQPEDFATYYCQNNYYFPYTFGQGTKLEIKRTVAAPSVFIFPPSDEQLKSGTASVVCLLNNFYPREAKVQWKVDNALQSGNSQESVTEQDSKDSTYSLSSTLTLSKADYEKHKVYACEVTHQGLSSPVTKSFNRGECTSGGGGSGGGGSGGGGSQVQLVQSGGGVVQPGRSLRLSCKASGYTFTRYTMHWVRQAPGKGLEWIGYINPSRGYTNYNQKFKDRFTISRDNSKNTAFLQMDSLRPEDTGVYFCARYYDDHYSLDYWGQGTPVTVSSGGGGSGGGGSGGGGSGGGGSGGGGSGGGGSDIQMTQSPSSLSASVGDRVTITCSASSSVSYMNWYQQTPGKAPKRWIYDTSKLASGVPSRFSGSGSGTDYTFTISSLQPEDIATYYCQQWSSNPFTFGQGTKLQIT
As to B4, the “TDCC activity” value in assay [1] is 1 pM.

B5: 32G4 mouse chimeric antibody (murine VH/VL on human IgG1 constant regions) (antibody, V domains shown)
VH: EVQLQQSGPELENPGASVKIFCKASGYSSTGYNINWVKQSSGKSLEWIGNINPYYGGITYNQKFKGKATLTVDKSSSTAYVQLKSLTSEDSAVYYCARDYYGNSFAYWGQGTLVTVST
VL: DIVMTQSPSSLTVTAGEKVTMSCKSSQSLLNSGNQKNYLTWYQQNPGQPPKLLIFWASTRESGVPDRFTGSGSGTDFTLTISSVQAEDLAVYYCQNNYYFPYTFGGGTKLEIR
notes: also called murine clone 32G4; mouse 32G4 chimeric control antibody
With B5, the EC50 in assay [2] was determined as 0.502 nM. In addition, the “fold stronger binding to CLDN18.2 than to CLDN18.1” value (“fold stronger binding” below) in assay [3] is no less than 1000 times.

B6: 15B10 mouse chimeric antibody (murine VH/VL on human IgG1 constant regions) (antibody, V domains shown)
VH: QVQLQQSGAELVRPGTSVKVSCKASGYAFSNYLIDWVKQRPGQGLEWIGVIHPGSGTNYNENFKGKATLTADKSSSTAYMQLSSLTSDDSAVYFCSRRWYGNSLIYWGQGTLVTVSA
VL: B5 VL with S22T, K36R, N45K, F55Y, N97D, Y99F, F100Y, Y102F, G106S, R113K
notes: also called murine clone 15B10
As to B6, a half-maximal effect in assay [2] (EC50) was put at 2.2 nM. Further, in assay [3], the “fold stronger binding” value is no less than 1000 times.

B7: 47D10 mouse chimeric antibody (murine VH/VL on human IgG1 constant regions) (antibody, V domains shown)
VH: QVMLVESGGGLVKPGGSLKLSCAASGFAFSSSAMSWIRQTPEKRLEWVATMTVGYIYTYYLDTVKGRFIISRDNANNTLYLQMSSLRSEDSAMYYCARQGYGNAMDYWGQGTSVTVSS
VL: B5 VL with N45K, F55Y, D66Y, Q85E, Y99I, F100Y, Y102L, G106A, I112L, R113K
notes: also called murine clone 47D10; mouse 47D10 chimeric control antibody
B7 registered an EC50 in assay [2] of 1.97 nM. Besides, the “fold stronger binding” value in assay [3] is no less than 1000 times.

B8: 47D10-huIgG1-V6 (antibody, V domains shown)
VH: QVQLVESGGGLVKPGGSLRLSCAASGFAFSSSAMSWIRQAPGKGLEWVATMTVGYIYTYYLDSVKGRFTISRDNAKNSLYLQMNSLRAEDTAVYYCARQGYGNAMDYWGQGTLVTVSS
VL: DIVMTQSPLSLPVTPGEPASISCRSSQSLLNSGNQKNYLTWYLQKPGQSPQLLIYWASTRESGVPDRFSGSGSGTDFTLKISRVEAEDVGVYYCQNNYIYPLTFGQGTKLEIKR
notes: Humanized full IgG1 antibody; also called humanized 47D10 variant V6; 47D10-V6
For the molecule B8, in assay [2], the EC50 is 0.22 nM.

B9: 47D10-huIgG1-V7 (antibody, V domains shown)
VH: B8 VH
VL: DIVMTQSPGTLSLSPGERATLSCRSSQSLLNSGNQKNYLTWYQQKPGQAPRLLIYWASTRESGIPDRFSGSGSGTDFTLTISRLEPEDFAVYYCQNNYIYPLTFGQGTKLEIKR
notes: Humanized full IgG1 antibody; also called humanized 47D10 variant V7; 47D10-V7
B9 showed an EC50 in assay [2] of 0.361 nM.

B10: 29G4 mouse chimeric antibody (murine VH/VL on human IgG1 constant regions) (antibody, V domains shown)
VH: QVQLKESGPGLVAPSQTLSITCTVSGFSLTNYGVQWVRQPPGKGLEWLGVIWAGGNTNYNSALLSRLSISKDTSKSQVFLKMNSLKTDDTAMYYCARGGYGNSCDYWGQGTLVTVSA
VL: DIVMTQSPSSLTVTAGEKVTMNCKSSQSLLNSGNQKNYLAWYRQKPGQPPKLLIYWASTRGSGVPDRFTGSGSGTDFALTISSVQAEDLAVYYCQNDYFYPLTFGAGTKLDLK
notes: also called murine clone 29G4
Molecule B10 gave an EC50 in assay [2] of 1.26 nM. Further, in assay [3], the “fold stronger binding” value is no less than 1000 times.

B11: 31A6 mouse chimeric antibody (murine VH/VL on human IgG1 constant regions) (antibody, V domains shown)
VH: QTYLQQSGAELVRSGASVKMSCKASGYTFASYNIHWVKQTPGQGLEWIGYIYPGKDGSHYNQKFRDKATLTADTSSSTAYMQISSLTSEDSAVYFCARGGYYGNSFDYWGQGTLVTVSA
VL: DIVMSQSPSSLTVTTGEKVTMTCKSSQSLLNSGNLKNYLAWYQQKPGQPPKLLIYWASIRESGVPDRFTGSGSGTDFTLTIISVQAEDLAIYYCQNAYTFPFTLGGGTKLEIK
notes: also called murine clone 31A6
With B11, in assay [2], the response was half-maximal at 10.9 nM (EC50). The “fold stronger binding” value in assay [3] is no less than 1000 times.

B12: 32G4-huIgG1-V8 (antibody, V domains shown)
VH: QVQLVQSGAEVKKPGASVKVSCKASGYSSTGYNINWVRQAPGQGLEWMGNINPYYGGITYNQKFQGRVTMTVDKSISTAYMELSRLRSDDTVVYYCARDYYGNSFAYWGQGTLVTVSS
VL: DIQMTQSPSSLSASVGDRVTITCRSSQSLLNSGNQKNYLTWYQQKPGKAPKLLIFWASTLESGVPSRFSGSGSGTDFTLTISSLQPEDFATYYCQNNYYFPYTFGQGTKLEIKR
notes: Humanized full IgG1 antibody; also called humanized 32G4 variant V8; 32G4-V8
Consider B12, for which, in assay [2], the EC50 was found to be 0.147 nM.

The term EC50 denotes the concentration giving half of the maximal effect.
